Data as given in PMC10397247.

Key:
Assay in all cases: two-hybrid library CCmax;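 also: natural log of median RNA to DNA barcode read ratio; higher means stronger binding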
[1] = molecular target: T1, 4H3438-AA; details: mean of both orientations
T1 chain: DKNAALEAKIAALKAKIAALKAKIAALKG

[2] = molecular target: T2, 4H_APH; details: mean of both orientations
T2 chain: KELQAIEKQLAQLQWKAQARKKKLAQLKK

[3] = molecular target: T3, 4H_BCR; details: mean of both orientations
T3 chain: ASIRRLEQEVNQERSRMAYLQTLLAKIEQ

[4] = molecular target: T4, 4H3073-AA; details: mean of both orientations
T4 chain: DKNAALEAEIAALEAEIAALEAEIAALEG

[5] = molecular target: T5, 4H452-AA; details: mean of both orientations
T5 chain: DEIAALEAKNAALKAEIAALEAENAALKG

[6] = molecular target: T6, 4H3015-AA
T6 chain: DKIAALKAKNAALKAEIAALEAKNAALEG

[7] = molecular target: T7, 4H406-AA; details: mean of both orientations
T7 chain: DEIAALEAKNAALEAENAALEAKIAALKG

[8] = molecular target: GCN2_T; details: mean of both orientations
[9] = molecular target: T8, 4H347-AA; details: mean of both orientations
T8 chain: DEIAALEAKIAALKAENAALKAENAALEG

[10] = molecular target: 4H_GCN4
[11] = molecular target: T9, 4H56-AA; details: mean of both orientations
T9 chain: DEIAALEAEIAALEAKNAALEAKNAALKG

[12] = molecular target: T10, 4H3865-AA; details: mean of both orientations
T10 chain: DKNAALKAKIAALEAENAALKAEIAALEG

[13] = molecular target: T11, 4H697-AA; details: mean of both orientations
T11 chain: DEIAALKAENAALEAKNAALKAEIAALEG

[14] = molecular target: T12, 4H3588-AA; details: mean of both orientations
T12 chain: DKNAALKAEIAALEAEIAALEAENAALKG

[15] = molecular target: T13, 4H982-AA; details: mean of both orientations
T13 chain: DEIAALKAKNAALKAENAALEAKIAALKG

[16] = molecular target: T14, 4H3697-AA; details: mean of both orientations
T14 chain: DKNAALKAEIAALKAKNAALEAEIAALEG

[17] = molecular target: T15, 4H3162-AA; details: mean of both orientations
T15 chain: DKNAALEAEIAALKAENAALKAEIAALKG

[18] = molecular target: T16, 4H340-AA; details: mean of both orientations
T16 chain: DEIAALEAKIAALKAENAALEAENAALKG

[19] = molecular target: T17, 4H3606-AA; details: mean of both orientations
T17 chain: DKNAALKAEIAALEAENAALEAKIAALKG

[20] = molecular target: T18, 4H3378-AA; details: mean of both orientations
T18 chain: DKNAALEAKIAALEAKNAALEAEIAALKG

[21] = molecular target: T19, 4H384-AA; details: mean of both orientations
T19 chain: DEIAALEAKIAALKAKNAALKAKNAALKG

[22] = molecular target: T20, 4H3718-AA; details: mean of both orientations
T20 chain: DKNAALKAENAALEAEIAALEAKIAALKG

[23] = molecular target: T21, 4H32-AA; details: mean of both orientations
T21 chain: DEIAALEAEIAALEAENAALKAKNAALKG

[24] = molecular target: T22, 4H3413-AA; details: mean of both orientations
T22 chain: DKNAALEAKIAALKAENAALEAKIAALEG

[25] = molecular target: T23, 4H3133-AA
T23 chain: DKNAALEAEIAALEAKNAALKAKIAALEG

[26] = molecular target: T24, 4H3631-AA; details: mean of both orientations
T24 chain: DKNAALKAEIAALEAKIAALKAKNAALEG

4H_GCN4, sequence (chain, as listed by the source): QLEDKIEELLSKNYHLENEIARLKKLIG

DKIAALKAKNAALKAEIAALEAKNAALEG [4H3015-AA]
interaction score [1]: -1.63
interaction score [2]: -2.92
interaction score [3]: -1.81
interaction score [4]: 0.065
interaction score [5]: -1.36
interaction score [6]: -1.16
interaction score [7]: -0.891
interaction score [8]: -1.44
interaction score [9]: -1.96
interaction score [10]: -1.28
interaction score [11]: -1.59

DKNAALEAEIAALEAKNAALKAKIAALEG [4H3133-AA]
interaction score [12]: 0.466
interaction score [13]: -1.6
interaction score [14]: -1.47
interaction score [15]: 0.112
interaction score [16]: -0.244
interaction score [17]: -1.24
interaction score [18]: -0.539
interaction score [19]: 1.29
interaction score [20]: -1.1
interaction score [21]: -1.58
interaction score [22]: -0.85
interaction score [23]: -1.83
interaction score [24]: 1.97
interaction score [25]: -0.726
interaction score [26]: -0.654
